Experimental data: patent publication US20150344580A1 (published 2015)

T1: human chemokine receptor CCR7 (UniProt P32248 25-378)
T1 chain: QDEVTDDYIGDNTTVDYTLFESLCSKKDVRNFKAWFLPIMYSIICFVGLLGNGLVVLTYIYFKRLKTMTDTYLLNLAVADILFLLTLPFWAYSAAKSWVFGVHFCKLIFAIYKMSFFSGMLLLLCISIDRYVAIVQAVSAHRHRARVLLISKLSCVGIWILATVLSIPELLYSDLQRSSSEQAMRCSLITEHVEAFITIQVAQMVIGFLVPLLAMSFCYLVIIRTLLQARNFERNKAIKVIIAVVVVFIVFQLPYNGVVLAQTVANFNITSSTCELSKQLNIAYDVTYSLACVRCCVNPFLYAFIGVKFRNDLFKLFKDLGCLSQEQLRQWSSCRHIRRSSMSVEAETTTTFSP


Legend:
[1] = biological target: T1, human chemokine receptor CCR7; test: FACS cell binding; after pH stress (2hr)
[2] = biological target: T1, human chemokine receptor CCR7; test: FACS cell binding; after pH stress (3hr)
[3] = biological target: T1, human chemokine receptor CCR7; test: FACS cell binding; after temperature stress
[4] = biological target: T1, human chemokine receptor CCR7; test: FACS cell binding; after pH stress (2hr)
[5] = biological target: T1, human chemokine receptor CCR7; test: FACS cell binding; after pH stress (3hr)

EC50 [1] | EC50 [2] | EC50 [3] | EC50 [4] | EC50 [5] | Binder
~9.4 nM | ~9.1 nM | ~6 nM | – | – | MSM R707 in IgG4 format (antibody, V domains shown) VH: EVQLLESGGGLVQPGGSLRLSCAASGFTFSNYAIHWVRQAPGKGLEWVSAITPRGGYTYYADSVKGRFTISRDNSKNTLYLQMNSLRAEDTAVYYCARGLTMMYTPGMDYWGQGTLVTVSS VL: not shown
– | – | – | ~4.6 nM | ~7.6 nM | MSM R735 in IgG4 format (antibody, V domains shown) VH: EVQLLESGGGLVQPGGSLRLSCAASGFTFSNYNMHWVRQAPGKGLEWVSGIGPRRGRTYYADSVKGRFTISRDNSKNTLYLQMNSLRAEDTAVYYCARSYAYQYRGLDYWGQGTLVTVSS VL: EIVLTQSPGTLSLSPGERATLSCRASQSVSSSYLAWYQQKPGQAPRLLIYGASSRATGIPDRFSGSGSGTDFTLTISRLEPEDFAVYYCQQGSPVTFGQGTKVEIKR
